Test results reported in the supplement of paper PMC9170038.

Tested on: MS2 coat protein
Assay: apparent KD of MS2 coat protein; designed switch direction (-1 OFF switch, 1 ON switch): -1; higher = weaker reporter binding
Procedure, shortened: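 An oligonucleotide input, 200 uM small-molecule ligand, or no input was present during titration of SNAP-549-labelled MS2 coat protein, which was doubled from 0.7 or 1.5 nM to 3 µM. Designed RNA switches had been transcribed on Illumina chips by stalled E. coli RNA polymerase. Apparent KD per design is the median over clusters of curves fitted to normalised cluster fluorescence.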

[1] = Eterna round: R95, input ligand: FMN 200 uM
[2] = Eterna round: R95, input ligand: microRNA oligo, concentration not stated
[3] = Eterna round: R95, input ligand: none
[4] = input ligand: microRNA oligo, concentration not stated

Row | Sequence | apparent KD of MS2 coat protein (input ligand: FMN 200 uM) | apparent KD of MS2 coat protein (input ligand: none) | also measured
1 | UAUUAGCAAGCACGAUCCCACAUGAGGAUCACCCAUGUGCUCGUCUUAUAAGGUACUGUGACGAAAGUCACGGUACC [Sensor 3, v1 - 94] (puzzle: Sensor v3, turn-off variant 1) |  |  | apparent KD of MS2 coat protein [1]: 64.2 nM; apparent KD of MS2 coat protein [2]: 847 nM; apparent KD of MS2 coat protein [3]: 75.9 nM
2 | UAUUAGCAAGCAUGAUCCCACAUGAGGAUCACCCAUGUGCUCGUCUUAUAAGGUACUGUGACGAAAGUCACGGUACC [Sensor 3, v1 - 97] (puzzle: Sensor v3, turn-off variant 1) |  |  | apparent KD of MS2 coat protein [1]: 195 nM; apparent KD of MS2 coat protein [2]: 89.4 nM; apparent KD of MS2 coat protein [3]: 218 nM
3 | UAUUAGCAAGCGAGAUCCCACAUGAGGAUCACCCAUGUAACAUCCAGAAUUACUGGGUGCAAAGCUCGUCUUAUAUA [Winner reversed engineered 3] (Eterna round: R97, puzzle: Sensor, turn-off variant 1) | 434 nM | 496 nM | 
4 | UAUUAGCAAGCGAGAUCCCACAUGAGGAUCACCCAUGUAAGCAUCCAGAAUUACUGGGUGCAAAAGCUCGUCUUAUA [Winner reversed engineered 5] (Eterna round: R97, puzzle: Sensor, turn-off variant 1) | 29.7 nM | 31 nM | 
5 | UAUUAGCAAGCGAGAUCCCACAUGAGGAUCACCCAUGUGCUCGUCGCAUCCAGAAUUACUGGGUGCGCUCGUCUUAU [Winner reversed engineered 15] (Eterna round: R97, puzzle: Sensor, turn-off variant 1) | 23.8 nM | 23.7 nM | 
6 | UAUUAGCAAGCGAGAUCCCACAUGAGGAUCACCCAUGUGCUCGUCUUAUAAAGUACUGUGACGAAAGUCACGGUACA [Sensor 3, v1 - 91 v3] (Eterna round: R97, puzzle: Sensor, turn-off variant 1) | 14.3 nM | 12.8 nM | 
7 | UAUUAGCAAGCGAGAUCCCACAUGAGGAUCACCCAUGUGCUCGUCUUAUAAAGUACUGUGACGAAAGUCACGGUACG [Mat - Sensor, turn-off var - Eli Mod - D10] (Eterna round: R97, puzzle: Sensor, turn-off variant 1) | 15.1 nM | 14.6 nM | 
8 | UAUUAGCAAGCGAGAUCCCACAUGAGGAUCACCCAUGUGCUCGUCUUAUAAGGUACUGUGACGAUAGUCACGGUACC [Mat - Sensor, turn-off var - Eli Mod - D16] (Eterna round: R97, puzzle: Sensor, turn-off variant 1) | 12.9 nM | 14.8 nM | 
9 | UAUUAGCAAGCGAGUGGGUACAUGAGGAUCACCCAUGUGCUCGUCUUAUAAGGUACUGUGACGAAAGUCACGGUACC [Eli 91 v33] (Eterna round: R97, puzzle: Sensor, turn-off variant 1) | 16.1 nM | 13.4 nM | 
10 | UAUUAGCAAGUAAGGUCCCACAUGAGGAUCACCCAUGUGCUCGUCUCCUCAGGUACGGAGCGGAAGCUCCCGAUAUG [Sensor-V1 #94] (Eterna round: R97, puzzle: Sensor, turn-off variant 1) | 87 nM | 102 nM | 
11 | UAUUAGCAAGUAAGGUCCCACAUGAGGAUCACCCAUGUGCUCGUCUCCUCAGGUACGGAGUGGAAACUCCCGAUAUG [Sensor-V1 #93] (Eterna round: R97, puzzle: Sensor, turn-off variant 1) | 84.7 nM | 76 nM | 
12 | UAUUAGCAAGUGAGAUCCCACAUGAGGAUCACCCAUGUGCUCGUCUUAUAACGUACUGUGACGAAAGUCACGGUACG [Sensor-V1 #81] (Eterna round: R97, puzzle: Sensor, turn-off variant 1) | 52.9 nM | 47.2 nM | 
13 | UAUUAGCAAGUGAGAUCCCACAUGAGGAUCACCCAUGUGCUCGUCUUAUAACGUACUGUGAGGAAACUCACGGUACG [Sensor-V1 #83] (Eterna round: R97, puzzle: Sensor, turn-off variant 1) | 47.6 nM | 51.2 nM | 
14 | UAUUAGUAAGGAUAUGAGCCGUAGGACGAAAGUCCUACGGCUCAGAAGGUACAUGAGGAUCACCCAUGUUCAUU [Mod of Fisker 5 - Jieux - Exclusion 4] (Eterna round: R97, puzzle: Exclusion 4) | 17.7 nM | 15.9 nM | 
15 | UAUUGCGAGUGAGGAUAUGACAUGAGGAUCACCCAUGUAAAGGGAGUUGGCUAUAUAGCAAGUUUUCAGAAGGCACUACUGUAU [JR_ExcNG2_Sub007] (Eterna round: R96, puzzle: Exclusion NG 2) | 114 nM | 66.4 nM | apparent KD of MS2 coat protein [4]: 48.8 nM
16 | UAUUUAGCAAGCAGAUCCCACAUGAGGAUCACCCAUGUUCUCUGAAAGUACAGAAUUACUGUACUUGCUCGUCUUAU [Winner reversed engineered 34] (Eterna round: R97, puzzle: Sensor, turn-off variant 1) | 210 nM | 237 nM | 
17 | UCAACGCAAGGAUAUACUUGCGGUGAUGUUCGAAAUCUUCUACUUGAGGAUCACCCAAGUAGAAGGUGCGGUGA [jl-ex2.4.65 ViennaUCT mod] (Eterna round: R97, puzzle: Exclusion 2) | 12.8 nM | 12.9 nM | 

Row | Sequence | apparent KD of MS2 coat protein (input ligand: FMN 200 uM) | apparent KD of MS2 coat protein (input ligand: none) | also measured
18 | UCAAGUUUAGAGGAUAUAUAAUAUUUAUUAACUAUAGAAGGCUAUACAUGAGGAUCACCCAUGUAUAUUGGGAU [JR_Ex6_Sub066] (Eterna round: R97, puzzle: Exclusion 6) | 40.6 nM | 26.1 nM | 
19 | UCAAUGCGAGGAUAUACGCACAAUUACAUGAGGAUCACCCAUGUCAUGAACUUUGGUAAGGUAGAAGGCGCUCCGU [Eternabot (L1) Solution 13] (Eterna round: R97, puzzle: Exclusion 5) | 32.4 nM | 41 nM | 
20 | UCAAUUUUGACAGGAUAUAGUUUUUGUUUCUCUCUAGAAGGGUCUGUGUACAUGAGGAUCACCCAUGUUCUUCUUAUUUAUAUU [JR_ExcNG1_Sub014] (Eterna round: R96, puzzle: Exclusion NG 1) | 28.4 nM | 36.7 nM | apparent KD of MS2 coat protein [4]: 28.6 nM
21 | UCACAGUGAGGAUAUUUAAAAUCGGAACCAGUUACCCGGAUGAAGAAGGCACAUGAGGAUCACCCAUGUGGACG [Eternabot (L2) Solution 14] (Eterna round: R97, puzzle: Exclusion 4) | 16.7 nM | 15.3 nM | 
22 | UCACCGCAAGGAUAUACUUGCGGUGAUGCUCGAAACUUUCUACUUGAGGAUCACCCAAGUAGAAGGUGCGGUGA [jl-ex2.4.68 ViennaUCT mod] (Eterna round: R97, puzzle: Exclusion 2) | 12.1 nM | 13.1 nM | 
23 | UCACGGGACUGAGGAUAUACAUCAACCAUGGUUGUAGAAGGCAGAAGGUUGGAUCAUACACUAAACAUGAGGAUCACCCAUGUU [JR_ExcNG1_Sub029] (Eterna round: R96, puzzle: Exclusion NG 1) | 17.7 nM | 21.6 nM | apparent KD of MS2 coat protein [4]: 16.8 nM
24 | UCACGGGACUGAGGAUAUACAUGAAUUAUUUUUGUAGAAGGCAGAAUGUUAGAUUAUUCACUAUACAUGAGGAUCACCCAUGUU [JR_ExcNG1_Sub022] (Eterna round: R96, puzzle: Exclusion NG 1) |  |  | apparent KD of MS2 coat protein [4]: 18.8 nM
25 | UCACGGGAUUGAGGAUAUAUAUGAAUUUUUUUUAUAGAAGGCAAAAUGUUAGAUUAUUCACUAUACAUGAGGAUCACCCAUGUU [JR_ExcBG1_Sub075] (Eterna round: R96, puzzle: Exclusion NG 1) |  |  | apparent KD of MS2 coat protein [4]: 20.3 nM
26 | UCACGGGAUUGAGGAUAUAUAUUAAUUUUUACAAUAGAAGGCAAAUUUUUAGUUUUUUCACUUUACAUGAGGAUCACCCAUGUU [JR_ExcBG1_Sub081] (Eterna round: R96, puzzle: Exclusion NG 1) |  |  | apparent KD of MS2 coat protein [4]: 20.5 nM
27 | UCACGGGUUUGAGGAUAUAUUAUUAUUAUUUAAAUAGAAGGCAAAGAAAUUGUUAUUUCACUAUACAUGAGGAUCACCCAUGUU [JR_ExcNG1_Sub088] (Eterna round: R96, puzzle: Exclusion NG 1) |  |  | apparent KD of MS2 coat protein [4]: 19.5 nM
28 | UCAUAACAUGAGGAUCACCCAUGUCAGGAUAUGAUACUAUGUACUUCGGUACAUAGUAUCAGAAGGGACAUACU [Ex1-3: 12] (puzzle: Exclusion 1) |  |  | apparent KD of MS2 coat protein [2]: 103 nM
29 | UCAUAACAUGAGGAUCACCCAUGUGAGGAUAUGAUACUAUGUACUUCGGUACAUAGUAUCAGAAGGCACAUGCU [Brourd's Ex1-3: 11 (nt 72 G)] (puzzle: Exclusion 1) |  |  | apparent KD of MS2 coat protein [1]: 34.8 nM; apparent KD of MS2 coat protein [2]: 127 nM; apparent KD of MS2 coat protein [3]: 127 nM
30 | UCAUGGUAGCAGGAUAUGCUUGUUUAAUUUUUUGCAGAAGGGCUAACAUGAGGAUCACCCAUGUGAGAGGUCUA [JR_E6_Sub065] (puzzle: Exclusion 6) |  |  | apparent KD of MS2 coat protein [1]: 31 nM; apparent KD of MS2 coat protein [2]: 64.3 nM; apparent KD of MS2 coat protein [3]: 144 nM
31 | UCAUGUUUAGAGGAUAUGAUUACUCUAGAGUGAUCAGAAGGCUAGACAUGAGGAUCACCCAUGUCAGAACAUGA [Exclusion 6 - B - 16:b] (puzzle: Exclusion 6) |  |  | apparent KD of MS2 coat protein [1]: 95.4 nM; apparent KD of MS2 coat protein [2]: 47.6 nM; apparent KD of MS2 coat protein [3]: 46.5 nM
32 | UCCGCGCGCUUGCGCGCGGACAUGAGGAUCACCCAUGUCGGGCUUUUUGCUCGUUUUGUUGCGCGCGUUCGCGCGCG [Revision to Olbi_3 by Sunset] (Eterna round: R97, puzzle: Sensor, turn-off variant 1) | 89.1 nM | 101 nM | 
33 | UCCGGACAUGAGGAUCACCCAUGUGAGGAUAUUGUCGACACGACUGAAAGGAUCACGGCGAGAAGGCGCUUGGA [Eternabot (L2) Solution 48] (Eterna round: R97, puzzle: Exclusion 1) | 25.7 nM | 21.6 nM | 
